Molecular target: T1, BMC03 (uncultured bacterium (metagenome))
T1 chain: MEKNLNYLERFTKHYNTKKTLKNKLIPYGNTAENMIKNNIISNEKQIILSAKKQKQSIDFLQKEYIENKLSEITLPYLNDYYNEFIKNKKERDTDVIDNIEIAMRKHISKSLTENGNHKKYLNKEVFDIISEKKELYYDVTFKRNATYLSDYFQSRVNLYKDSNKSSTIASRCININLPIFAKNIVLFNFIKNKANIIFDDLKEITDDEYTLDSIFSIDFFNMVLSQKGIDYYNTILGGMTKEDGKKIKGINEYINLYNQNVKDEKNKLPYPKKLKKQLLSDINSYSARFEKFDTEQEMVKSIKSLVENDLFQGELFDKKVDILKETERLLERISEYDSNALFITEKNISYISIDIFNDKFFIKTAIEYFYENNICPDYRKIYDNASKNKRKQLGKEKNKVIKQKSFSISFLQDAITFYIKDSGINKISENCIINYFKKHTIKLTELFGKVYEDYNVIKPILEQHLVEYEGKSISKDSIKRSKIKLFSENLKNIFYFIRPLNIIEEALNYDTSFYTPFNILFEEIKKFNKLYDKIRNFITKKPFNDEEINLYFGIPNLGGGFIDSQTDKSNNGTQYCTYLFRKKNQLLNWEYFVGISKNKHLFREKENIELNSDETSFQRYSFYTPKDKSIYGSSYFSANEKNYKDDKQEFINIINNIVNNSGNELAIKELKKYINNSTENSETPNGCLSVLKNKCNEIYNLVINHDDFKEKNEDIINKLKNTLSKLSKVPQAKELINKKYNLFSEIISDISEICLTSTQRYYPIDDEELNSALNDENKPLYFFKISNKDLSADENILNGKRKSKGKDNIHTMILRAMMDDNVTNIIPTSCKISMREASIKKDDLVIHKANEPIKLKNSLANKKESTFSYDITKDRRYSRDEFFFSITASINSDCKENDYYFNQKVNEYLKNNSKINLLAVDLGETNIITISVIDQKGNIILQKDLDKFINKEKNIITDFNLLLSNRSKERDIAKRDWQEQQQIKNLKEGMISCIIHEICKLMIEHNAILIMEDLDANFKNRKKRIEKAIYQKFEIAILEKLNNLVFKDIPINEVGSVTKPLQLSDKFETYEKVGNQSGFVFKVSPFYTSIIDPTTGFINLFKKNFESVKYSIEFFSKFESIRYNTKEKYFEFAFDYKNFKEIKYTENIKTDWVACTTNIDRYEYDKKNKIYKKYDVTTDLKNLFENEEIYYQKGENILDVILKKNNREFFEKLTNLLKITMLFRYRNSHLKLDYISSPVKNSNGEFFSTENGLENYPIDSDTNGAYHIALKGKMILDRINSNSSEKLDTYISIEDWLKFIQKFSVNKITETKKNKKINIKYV
Experiment: cell_activity; PAM not stated; E. coli depletion, 30 C
In short: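 E. coli carrying arabinose-induced (0.2%) BMC nuclease, grown at 30° C., made electrocompetent and electroporated with 50-100 ng plasmid carrying gRNA against malQ. Transformants plated on selective M9-glucose agar with kanamycin/ampicillin (± nourseothricin), and growth scored after 48 h at 30° C.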

B1: malQ gRNA (BMC stem-loop + 24 nt spacer) ; malQ protospacer (ssRNA ; dsDNA)
RNA: GAUUUCUACUAUUGUAGAUGUGGCGGUACGUUGAUGCAUCGCG
DNA 1: GTGGCGGTACGTTGATGCATCGCG
DNA 2: CGCGATGCATCAACGTACCGCCAC
Binder B1 has an activity greater than 99.9 % colony reduction.
